Assays:
[1] = target: tunA (tunicate A, CBY12809.1), Oikopleura dioica S100 protein (Oikopleura dioica); test: native MS; nanoESI time-of-flight MS; 10 or 100 mM ammonium acetate, pH 7.4; protein diluted from 10 uM to 0.01 uM; monomer to dimer
[2] = target: tunA (tunicate A, CBY12809.1), Oikopleura dioica S100 protein (Oikopleura dioica); test: AUC; sedimentation velocity; ~50 uM protein; 25 mM TES, 100 mM NaCl, 1 mM TCEP, pH 7.4; interference optics; c(s) by SedFit; monomer to dimer
[3] = target: tunB (tunicate B, CBY30360.1), Oikopleura dioica S100 protein (Oikopleura dioica); test: native MS; nanoESI time-of-flight MS; 10 or 100 mM ammonium acetate, pH 7.4; protein diluted from 10 uM to 0.01 uM; monomer to dimer
[4] = target: tunB (tunicate B, CBY30360.1), Oikopleura dioica S100 protein (Oikopleura dioica); test: AUC; sedimentation velocity; ~50 uM protein; 25 mM TES, 100 mM NaCl, 1 mM TCEP, pH 7.4; interference optics; c(s) by SedFit; monomer to dimer

stoichiometry N [1] | stoichiometry N [2] | stoichiometry N [3] | stoichiometry N [4] | Substance
2 | 2 | – | – | tunA (tunicate A, CBY12809.1), Oikopleura dioica S100 protein (natural protein)
– | – | 2 | 2 | tunB (tunicate B, CBY30360.1), Oikopleura dioica S100 protein (natural protein)
